Experimental data: the domain aggregation screens of Martell et al. (2025)

assay: soluble fraction after stress (log2 fold change); higher = more stays soluble; pooled small domains, quantitative proteomics; details: stress: pH 4
In short: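 Values are log2 fold changes, and higher ones mean more of the domain stayed soluble. Each fold change reflects the soluble amount of a domain after acid stress and is taken as a measure of aggregation propensity. The stress was pH 4, applied to pooled custom libraries of small protein domains analysed by high-throughput quantitative proteomics.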

Going from “HMFEERKKDWNLTGLLDDVIRRYIHQLTNDELNEINLEKSSGMPDEEIKNGIKLPLAVMQQRRETWGS” to “HMFEQRLRQAMKELRLKQVQVAGLTGKSRGAISQYLSGDRVPPDGVQREMAIALGLEADYFSR”, the “soluble fraction (log2)” value rises from -0.308 to 0.343.

First: HMFERFIFTDEVYIRLKKSGLPQTTLRPLLEIHGKSFDHNEINIILSGLIPNQDFERYAQIIKSHSRF
Second: HMFEYDEIMEQSVPKIAWGSLLTIMKKASSHKEMLWYINETYKNGWSRSMVLNQIAMASYERSLIE
The “soluble fraction (log2)” value of the first is lower: -2.14 for the first, -0.918 for the second.

Compared with “HMFFDKIIVDFLADGSRIDKYISTLYPDISRTHIQRLIAEQFILVNDSVVKSNYKLSTNDVVLIHIPEA”, “HMFFMTMGEKIQLLRKKQNWSQETLAEKLSVSRQAVSLWERDESQPELDKLLKLAKIFSVTTDYLIDDSVT” is higher in “soluble fraction (log2)” value: -1.78 for the first, -0.0472 for the second.

First: HMFGGIEFGWSQLPDGRVEYIIQLDDQAIAALKNGRSLTSSLPPEVQNADRIRIQYGAGPVEKGLLLQ
Second: HMFIEMDEPEKILHRILNEANGKLELDKIGYRAEWPIGKVLTVLMSLELKGVVQSHPGKVYSL
The “soluble fraction (log2)” value of the first is higher: -0.0928 for the first, -0.464 for the second.

First: HMFIGFLHQLKEAGVPVSIREYLDFLSGLDKGITNLNTNSFYHFARASLVKDERHYDRFDRTFSEFFEGAL
Second: HMFIQLSQEEKKVVEGLQQRSKTHLDALALEVGQNISKTAAMLMELEMKGVVRALPGKYYEL
The “soluble fraction (log2)” value of the first is lower: -1.71 for the first, -0.239 for the second.

Compared with “HMFKEVPVPDVKGMTLEEAKLALEKEGFILGKTEEAESTEVAAGKIISQNLEAGKIAKQGTSVNLVVSKGK”, “HMFKLPRTIGTFEDSDVVIGAGKFGPYIMHNKKFVSLPKSEDPLTIGLERAIELISAKREQEKQRH” is higher in “soluble fraction (log2)” value: -0.0392 for the first, 0.237 for the second.

Compared with “HMFLPFFDNLRKAGVPVSLREFLGFLEGMKAGLATYDIDAFYFLARTTMVKDERNLDKFDRAFSATFKG”, “HMFNDGEIAIYTDPRGDAGETQIWKRGKGYYGQNDSFDFEAKDKKELEMKLKRWGYVLIAGSIDE” is higher in “soluble fraction (log2)” value: -0.935 for the first, -0.0774 for the second.

First: HMFNGDPTTRESILASARAEIDQYGIIGLRLSAVAEKAQVSVPLIYKYFEDRDGLLAVVLGDW
Second: HMFNTWLGEIRSNTGANVRSGPDASAAIVDARPNETVVRVIGQSGNWLQIGDKQFVAQSLVAP
The “soluble fraction (log2)” value of the first is lower: -1.36 for the first, -0.0317 for the second.

“HMFPDLTGDELRIVDLLNTANDLQVNIITAKTNLPISRVTSLLFQLEMKGVVKPLAGGMYHLLG” and “HMFPELDEEEQKITKLLQAQNDLPANIIAVKTALNIGTTQAKLFSLEMKGVVKPYAGGFYHLL” are within 0.2 log units of each other in “soluble fraction (log2)” value: -0.117 for the first, 0.0183 for the second.

Compared with “HMFPNLTNEEQQVMKVLAKTNDLQINMLSVQSNLPIARLTALLFSMEMKGVVKTLAGGVYHLL”, “HMFPNSFSEREKEVVDLLLQAKSNKQIAFSLGITNRTVEYHLGNIFAKLGVSSRSEAILTITNYKNQ” is lower in “soluble fraction (log2)” value: 0.375 for the first, -1.27 for the second.

First: HMFPQVEVQLIYSYKSDRILNKMLKEFNVVILNQVFKDDILTSFHMNYSLVNQLITKIKSYPDISYKIIN
Second: HMFPTLNEDEQTIVSALQKINDQPINTLSIHTALPIPRLTSLLFQLEIKGVIKQLAGGTYHVL
The “soluble fraction (log2)” value of the first is lower: -0.89 for the first, -0.147 for the second.

First: HMFQLSNEAKQQVLGELKRYESKQSAVLPALYIGQKDNKGHITPEVIRELSKVMDIPESQINEVFTFYTM
Second: HMFQRLPFSFANRYKMVLEYQHPERPPVLYYVEPLKAAAILEVSRVIKSGFTPQAIVSDEFEKKLTEAYQR
The “soluble fraction (log2)” value of the first is lower: -0.402 for the first, 0.0565 for the second.

First: HMFRMTPQRMAILAEVQNAERHLTAAEIYERVRRKYPTIAYGTVYRTLHLLAKHGLIQEFPFGDNASLFDR
Second: HMFRPRIEPGAKGSYVLEVQKRLAKLGYEHAGFDGVYGPGTERAIMQLQRDKGLPVTGIVDMRTYEALGLF
The “soluble fraction (log2)” value of the first is lower: -0.0123 for the first, ≥ 0.43 for the second.

Going from “HMFRSTLEELKHQISGFLKANQSQEFTAQNLADGLRMTSIAEYKRVVNAMDALVRDGELTFDAGKYQYNPN” to “HMFSMKDFGQRLRQLRKERGLTQGDLARLAKIDIMQVSRYERGLGLPSLETAIALARVLETSTDLLFLG”, the “soluble fraction (log2)” value falls from 0.252 to -0.0792.

First: HMFSPSDEDLELAHRQIRAFEEVEANGKSIAVVDGRIVESLHIVTARDTLEKAKAITALAEEM
Second: HMFSVVDKITLQEELKKLSKKEQLLIQLRYYDELNQEEIAKIFHVSQVQISRMEKKIIEKLKKQF
The “soluble fraction (log2)” value of the first is lower: -0.0013 for the first, 0.273 for the second.

“HMFTDEELEHIRSALIQAGIRLSKELGLQKMSVEKLTAAVGIAKGSFYMFFGSKEDFILEVAEYTGAQ” and “HMFTEEEMTKLRHELILAGIRLSRELGLQRMSVEKITSAVGIAKGSFYIFFDSKEDFILEIADHANRE” are within 0.2 log units of each other in “soluble fraction (log2)” value: -0.679 for the first, -0.828 for the second.

“HMFTEEQMDWLRLIKDHIVASLSILPEDLELTPFDRKGGLLGFYDAFGDEYEKILQEMNEELVA” and “HMFTEIMAERNALIQAIQQNLPPQHIQSILSKKNKFRLEDLTNEELRDVWQWILNQRQAQQHQQQ” are within 0.2 log units of each other in “soluble fraction (log2)” value: -0.43 for the first, -0.373 for the second.

First: HMFTGELESRVFELNYVDGLVASAALAGVLTDKGSATPIASRAGGENDMLLVVDRIASYSQIEKIITQLD
Second: HMFTKSNLEKLSNSELILKAIDSGNYSKIEFGGSEALNPDVPSYKKDLKNREELIEILSEMGM
The “soluble fraction (log2)” value of the first is lower: -1.31 for the first, -0.0908 for the second.

Going from “HMFVNADEIAKGLSPFNPSSVAIEAGRLMLKRIGELLSAGVSFSVETTLSTRSYINLIQQAQNQGYSVSL” to “HMFVVVPDLIGKTINQFEEDLSELNLKYVVSDSGNFNPEFKINAVLDQSPKANSKVKDGRKIYLTLNAS”, the “soluble fraction (log2)” value falls from ≥ 0.43 to -0.324.
